According to publication PMC12615815, “GroEL/ES chaperonin unfolds then encapsulates a nascent protein on the ribosome” (Nature Communications, 2025):

B1: GroES (L49W) (natural protein, E. coli, UniProt P0A6F9 1-97, looked up)
chain: MNIRPLHDRVIVKRKEVETKSAGGIVLTGSAAAKSTRGEVLAVGNGRIWENGEVKPLDVKVGDIVIFNDGYGVKSEKIDNEEVLIMSESDILAIVEA
notes: GroES, E. coli co-chaperonin subunit (10.5 kDa as printed); tryptophan mutant used for quantification; also called GroES 7-mer; source: E. coli BL21(DE3), purified (StrepTactin, 3C cleavage, Superdex 200, GSTrap); not shown: double StrepII, N-terminal, cleaved

Assays:
[1] = biological target: RNC_(1-510mut): stalled 70S ribosome:nascent chain complex with β-galactosidase 1-510 carrying I141N and G353D (E. coli); assay: co-sedimentation; RNC first incubated with GroEL and GroES (20 min, 30 °C), then 1 mM ATP, 1 mM BeSO4, 10 mM NaF (10 min, 30 °C); 35% sucrose cushion; pellet by immunoblot (GroEL, GroES, S2) and iBAQ mass spectrometry
[2] = biological target: RNC_(1-510mut): stalled 70S ribosome:nascent chain complex with β-galactosidase 1-510 carrying I141N and G353D (E. coli); assay: co-sedimentation; RNC with GroEL, no GroES and no ATP/BeFx; pellet quantified by iBAQ mass spectrometry, normalised to the average of the ribosomal proteins; n = 3
[3] = biological target: T1, Ribosomal stalk protein L7/L12 (E. coli, UniProt P0A7K2 1-121); assay: cross-linking; XL-MS: RNC_(1-510mut) with 5 µM GroEL and 10 µM GroES, then 1 mM ATP, 1 mM BeSO4, 10 mM NaF; 1 mM DSBU 1 h at 25 °C; conditions: both partners purified
T1 construct: ribosomal protein L7/L12, E. coli, as part of the ribosome; Cross-linked while part of the 70S ribosome or RNC; also called stalk complex; source: endogenous, in E. coli 70S ribosomes (bought: NEB) and in RNCs purified from E. coli

Row | Molecule | stoichiometry N (GroEL subunits per ribosome) [1] | stoichiometry N (GroEL subunits per ribosome) [2] | binding result [3]
1 | GroEL (V381W, A384W, V387W) (from UniProt P0A6F5 2-525) (natural protein) | 6.7 | 9.8 | 
2 | B1 |  |  | binds
